Assay results from US20220153839A1.
One block for each binder: values may come before it.

Target: ROR1 (reagent by which anti-ROR1 recognition of CAR-T cells was read; form not stated)
Test: FACS of EGFR+ transduced T cells

ROR1 (reagent by which anti-ROR1 recognition of CAR-T cells was read; form not stated), sequence (Q01973 24-403): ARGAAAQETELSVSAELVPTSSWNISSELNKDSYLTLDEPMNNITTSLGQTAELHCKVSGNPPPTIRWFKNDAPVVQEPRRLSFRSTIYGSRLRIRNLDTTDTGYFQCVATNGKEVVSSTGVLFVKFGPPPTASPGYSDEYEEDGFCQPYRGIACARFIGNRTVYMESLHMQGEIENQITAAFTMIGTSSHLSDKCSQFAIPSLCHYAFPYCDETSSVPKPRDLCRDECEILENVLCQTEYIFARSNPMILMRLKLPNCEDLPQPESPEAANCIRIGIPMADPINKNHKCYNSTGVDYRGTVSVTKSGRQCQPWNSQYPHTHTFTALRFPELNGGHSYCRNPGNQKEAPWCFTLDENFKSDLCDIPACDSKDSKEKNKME

percent of CAR-T cells with anti-ROR1 recognition: > 90%
B1: XBR1-402 chimeric antigen receptor with short spacer, on CD8+ T cells (protein, part only; not given: scFv linker, spacer, signaling parts, not shown: large carriers)
scFv, part: QEQQKESGGGLFKPTDTLTLTCTASGFDISSYYMSWVRQAPGNGLEWIGAIGISGNAYYASWAKSRSTITRNTNLNTVTLKMTSLTAADTATYFCARDHPTYGMDLWGPGTLVTVSSSYELTQLPSVSVSLGQTARITCEGNNIGSKAVHWYQQKPGLAPGLLIYDDDERPSGVPDRFSGSNSGDTATLTISGAQAGDEADYYCQVWDSSAYVFGGGTQLTVTG

percent of CAR-T cells with anti-ROR1 recognition: > 90%
B2: XBR1-402 chimeric antigen receptor with long spacer, on CD8+ T cells (protein, part only; not given: scFv linker, spacer, signaling parts, not shown: large carriers)
scFv, part: B1 scFv, part
